Measured values reported in patent publication US20250025478A1 (published 2025).

B1: PTP1B (PTPN1) (enzyme, Homo sapiens, UniProt P18031 1-435, looked up)
chain: MEMEKEFEQIDKSGSWAAIYQDIRHEASDFPCRVAKLPKNKNRNRYRDVSPFDHSRIKLHQEDNDYINASLIKMEEAQRSYILTQGPLPNTCGHFWEMVWEQKSRGVVMLNRVMEKGSLKCAQYWPQKEEKEMIFEDTNLKLTLISEDIKSYYTVRQLELENLTTQETREILHFHYTTWPDFGVPESPASFLNFLFKVRESGSLSPEHGPVVVHCSAGIGRSGTFCLADTCLLLMDKRKDPSSVDIKKVLLEMRKFRMGLIQTADQLRFSYLAVIEGAKFIMGDSSVQDQWKELSHEDLEPPPEHIPPPPRPPKRILEPHNGKCREFFPNHQWVKEETQEDKDCPIKEEKGSPLNAAPYGIESMSQDTEVRSRVVGGSLRGAQAASPAKGEPSLPEKDEDHALSYWKPFLVNMCVATVLTAGAYLCYRFLFNSNT
notes: Endogenous protein in cell lysates; also called Tyrosine-protein phosphatase non-receptor type 1
B2: USP15 (enzyme, human, UniProt Q9Y4E8 2-981, looked up)
chain: AEGGAADLDTQRSDIATLLKTSLRKGDTWYLVDSRWFKQWKKYVGFDSWDKYQMGDQNVYPGPIDNSGLLKDGDAQSLKEHLIDELDYILLPTEGWNKLVSWYTLMEGQEPIARKVVEQGMFVKHCKVEVYLTELKLCENGNMNNVVTRRFSKADTIDTIEKEIRKIFSIPDEKETRLWNKYMSNTFEPLNKPDSTIQDAGLYQGQVLVIEQKNEDGTWPRGPSTPKSPGASNFSTLPKISPSSLSNNYNNMNNRNVKNSNYCLPSYTAYKNYDYSEPGRNNEQPGLCGLSNLGNTCFMNSAIQCLSNTPPLTEYFLNDKYQEELNFDNPLGMRGEIAKSYAELIKQMWSGKFSYVTPRAFKTQVGRFAPQFSGYQQQDCQELLAFLLDGLHEDLNRIRKKPYIQLKDADGRPDKVVAEEAWENHLKRNDSIIVDIFHGLFKSTLVCPECAKISVTFDPFCYLTLPLPMKKERTLEVYLVRMDPLTKPMQYKVVVPKIGNILDLCTALSALSGIPADKMIVTDIYNHRFHRIFAMDENLSSIMERDDIYVFEININRTEDTEHVIIPVCLREKFRHSSYTHHTGSSLFGQPFLMAVPRNNTEDKLYNLLLLRMCRYVKISTETEETEGSLHCCKDQNINGNGPNGIHEEGSPSEMETDEPDDESSQDQELPSENENSQSEDSVGGDNDSENGLCTEDTCKGQLTGHKKRLFTFQFNNLGNTDINYIKDDTRHIRFDDRQLRLDERSFLALDWDPDLKKRYFDENAAEDFEKHESVEYKPPKKPFVKLKDCIELFTTKEKLGAEDPWYCPNCKEHQQATKKLDLWSLPPVLVVHLKRFSYSRYMRDKLDTLVDFPINDLDMSEFLINPNAGPCRYNLIAVSNHYGGMGGGHYTAFAKNKDDGKWYYFDDSSVSTASEDQIVSKAAYVLFYQRQDTFSGTGFFPLDRETKGASAATGIPLESDEDSNDNDNDIENENCMHTN
notes: Endogenous protein

Target: T1, RNF213-TurboID (Homo sapiens (Human), UniProt Q63HN8 1-5207)
T1 construct: Recombined into HeLa FlpIn-TRex RNF213-KO cells; proximity-labelling bait; also called C-Turbo; 3×-FLAG-RNF213-TurboID; not shown: 3×-FLAG tag; TurboID biotin ligase at the C-terminus
Assay: TurboID proximity biotinylation, streptavidin recovery, MS, SAINT express (FIG. 2B)
Description: RNF213-interacting proteins were identified to evaluate how RNF213 regulates hypoxia sensitivity (FIG. 2A). TurboID-RNF213 (“N-Turbo”), RNF213-TurboID (“C-Turbo”), or TurboID alone (Control Turbo) were recombined into HeLa FlpIn-TRex RNF213-KO cells. These cells were labelled with biotin for 10 min., and biotinylated proteins were recovered on streptavidin, digested with trypsin, and analyzed by MS (FIG. 2A). Proteins were ranked as potential binding partners by using the SAINT express algorithm³⁶ Immunoblotting (FIG. 9A) and silver staining (FIG. 9B) confirmed that similar amounts of each sample were submitted for analysis. Relatively few proteins labelled by N-Turbo were labelled to an extent greater than their labeling by Control-Turbo (FIG. 9C). […] Among the other top candidates were the major K63-deubiquitinase and NF-κB regulator CYLD and its interacting protein SPATA2 (FIG. 2B, orange-colored arrows). […] Other top C-Turbo interactors included proteins involved in VEGF signaling, which is induced in hypoxia (FLII, MYOF^{39,40}), inflammation and atherosclerosis (MAP4K4, SPTLC1^{41,42}), lipotoxicity (SPTLC1, ALDH1B1^{43,44}), ischemia response (CPEB4⁴⁵), and stroke (SARS2⁴⁶). Top N-Turbo interactors included CYP51A1, which plays a crucial role in cholesterol metabolism and atherosclerosis⁴⁷.
Cells were cultured in standard media but with 10% tetracycline (Tet)-free FBS (Clonetech) for at least 1 week. Tet-free/biotin-free FBS was generated by incubating Tet-free FBS with sterile streptavidin beads overnight followed by centrifugation to remove the beads. N-Turbo, C-Turbo, and Turbo proteins were induced by adding 1 μg/ml Dox to cells for 36 hours. For the last ten min. of incubation, 500 μM of biotin was added to the medium.

T1 sequence (Q63HN8 whole entry N1045D): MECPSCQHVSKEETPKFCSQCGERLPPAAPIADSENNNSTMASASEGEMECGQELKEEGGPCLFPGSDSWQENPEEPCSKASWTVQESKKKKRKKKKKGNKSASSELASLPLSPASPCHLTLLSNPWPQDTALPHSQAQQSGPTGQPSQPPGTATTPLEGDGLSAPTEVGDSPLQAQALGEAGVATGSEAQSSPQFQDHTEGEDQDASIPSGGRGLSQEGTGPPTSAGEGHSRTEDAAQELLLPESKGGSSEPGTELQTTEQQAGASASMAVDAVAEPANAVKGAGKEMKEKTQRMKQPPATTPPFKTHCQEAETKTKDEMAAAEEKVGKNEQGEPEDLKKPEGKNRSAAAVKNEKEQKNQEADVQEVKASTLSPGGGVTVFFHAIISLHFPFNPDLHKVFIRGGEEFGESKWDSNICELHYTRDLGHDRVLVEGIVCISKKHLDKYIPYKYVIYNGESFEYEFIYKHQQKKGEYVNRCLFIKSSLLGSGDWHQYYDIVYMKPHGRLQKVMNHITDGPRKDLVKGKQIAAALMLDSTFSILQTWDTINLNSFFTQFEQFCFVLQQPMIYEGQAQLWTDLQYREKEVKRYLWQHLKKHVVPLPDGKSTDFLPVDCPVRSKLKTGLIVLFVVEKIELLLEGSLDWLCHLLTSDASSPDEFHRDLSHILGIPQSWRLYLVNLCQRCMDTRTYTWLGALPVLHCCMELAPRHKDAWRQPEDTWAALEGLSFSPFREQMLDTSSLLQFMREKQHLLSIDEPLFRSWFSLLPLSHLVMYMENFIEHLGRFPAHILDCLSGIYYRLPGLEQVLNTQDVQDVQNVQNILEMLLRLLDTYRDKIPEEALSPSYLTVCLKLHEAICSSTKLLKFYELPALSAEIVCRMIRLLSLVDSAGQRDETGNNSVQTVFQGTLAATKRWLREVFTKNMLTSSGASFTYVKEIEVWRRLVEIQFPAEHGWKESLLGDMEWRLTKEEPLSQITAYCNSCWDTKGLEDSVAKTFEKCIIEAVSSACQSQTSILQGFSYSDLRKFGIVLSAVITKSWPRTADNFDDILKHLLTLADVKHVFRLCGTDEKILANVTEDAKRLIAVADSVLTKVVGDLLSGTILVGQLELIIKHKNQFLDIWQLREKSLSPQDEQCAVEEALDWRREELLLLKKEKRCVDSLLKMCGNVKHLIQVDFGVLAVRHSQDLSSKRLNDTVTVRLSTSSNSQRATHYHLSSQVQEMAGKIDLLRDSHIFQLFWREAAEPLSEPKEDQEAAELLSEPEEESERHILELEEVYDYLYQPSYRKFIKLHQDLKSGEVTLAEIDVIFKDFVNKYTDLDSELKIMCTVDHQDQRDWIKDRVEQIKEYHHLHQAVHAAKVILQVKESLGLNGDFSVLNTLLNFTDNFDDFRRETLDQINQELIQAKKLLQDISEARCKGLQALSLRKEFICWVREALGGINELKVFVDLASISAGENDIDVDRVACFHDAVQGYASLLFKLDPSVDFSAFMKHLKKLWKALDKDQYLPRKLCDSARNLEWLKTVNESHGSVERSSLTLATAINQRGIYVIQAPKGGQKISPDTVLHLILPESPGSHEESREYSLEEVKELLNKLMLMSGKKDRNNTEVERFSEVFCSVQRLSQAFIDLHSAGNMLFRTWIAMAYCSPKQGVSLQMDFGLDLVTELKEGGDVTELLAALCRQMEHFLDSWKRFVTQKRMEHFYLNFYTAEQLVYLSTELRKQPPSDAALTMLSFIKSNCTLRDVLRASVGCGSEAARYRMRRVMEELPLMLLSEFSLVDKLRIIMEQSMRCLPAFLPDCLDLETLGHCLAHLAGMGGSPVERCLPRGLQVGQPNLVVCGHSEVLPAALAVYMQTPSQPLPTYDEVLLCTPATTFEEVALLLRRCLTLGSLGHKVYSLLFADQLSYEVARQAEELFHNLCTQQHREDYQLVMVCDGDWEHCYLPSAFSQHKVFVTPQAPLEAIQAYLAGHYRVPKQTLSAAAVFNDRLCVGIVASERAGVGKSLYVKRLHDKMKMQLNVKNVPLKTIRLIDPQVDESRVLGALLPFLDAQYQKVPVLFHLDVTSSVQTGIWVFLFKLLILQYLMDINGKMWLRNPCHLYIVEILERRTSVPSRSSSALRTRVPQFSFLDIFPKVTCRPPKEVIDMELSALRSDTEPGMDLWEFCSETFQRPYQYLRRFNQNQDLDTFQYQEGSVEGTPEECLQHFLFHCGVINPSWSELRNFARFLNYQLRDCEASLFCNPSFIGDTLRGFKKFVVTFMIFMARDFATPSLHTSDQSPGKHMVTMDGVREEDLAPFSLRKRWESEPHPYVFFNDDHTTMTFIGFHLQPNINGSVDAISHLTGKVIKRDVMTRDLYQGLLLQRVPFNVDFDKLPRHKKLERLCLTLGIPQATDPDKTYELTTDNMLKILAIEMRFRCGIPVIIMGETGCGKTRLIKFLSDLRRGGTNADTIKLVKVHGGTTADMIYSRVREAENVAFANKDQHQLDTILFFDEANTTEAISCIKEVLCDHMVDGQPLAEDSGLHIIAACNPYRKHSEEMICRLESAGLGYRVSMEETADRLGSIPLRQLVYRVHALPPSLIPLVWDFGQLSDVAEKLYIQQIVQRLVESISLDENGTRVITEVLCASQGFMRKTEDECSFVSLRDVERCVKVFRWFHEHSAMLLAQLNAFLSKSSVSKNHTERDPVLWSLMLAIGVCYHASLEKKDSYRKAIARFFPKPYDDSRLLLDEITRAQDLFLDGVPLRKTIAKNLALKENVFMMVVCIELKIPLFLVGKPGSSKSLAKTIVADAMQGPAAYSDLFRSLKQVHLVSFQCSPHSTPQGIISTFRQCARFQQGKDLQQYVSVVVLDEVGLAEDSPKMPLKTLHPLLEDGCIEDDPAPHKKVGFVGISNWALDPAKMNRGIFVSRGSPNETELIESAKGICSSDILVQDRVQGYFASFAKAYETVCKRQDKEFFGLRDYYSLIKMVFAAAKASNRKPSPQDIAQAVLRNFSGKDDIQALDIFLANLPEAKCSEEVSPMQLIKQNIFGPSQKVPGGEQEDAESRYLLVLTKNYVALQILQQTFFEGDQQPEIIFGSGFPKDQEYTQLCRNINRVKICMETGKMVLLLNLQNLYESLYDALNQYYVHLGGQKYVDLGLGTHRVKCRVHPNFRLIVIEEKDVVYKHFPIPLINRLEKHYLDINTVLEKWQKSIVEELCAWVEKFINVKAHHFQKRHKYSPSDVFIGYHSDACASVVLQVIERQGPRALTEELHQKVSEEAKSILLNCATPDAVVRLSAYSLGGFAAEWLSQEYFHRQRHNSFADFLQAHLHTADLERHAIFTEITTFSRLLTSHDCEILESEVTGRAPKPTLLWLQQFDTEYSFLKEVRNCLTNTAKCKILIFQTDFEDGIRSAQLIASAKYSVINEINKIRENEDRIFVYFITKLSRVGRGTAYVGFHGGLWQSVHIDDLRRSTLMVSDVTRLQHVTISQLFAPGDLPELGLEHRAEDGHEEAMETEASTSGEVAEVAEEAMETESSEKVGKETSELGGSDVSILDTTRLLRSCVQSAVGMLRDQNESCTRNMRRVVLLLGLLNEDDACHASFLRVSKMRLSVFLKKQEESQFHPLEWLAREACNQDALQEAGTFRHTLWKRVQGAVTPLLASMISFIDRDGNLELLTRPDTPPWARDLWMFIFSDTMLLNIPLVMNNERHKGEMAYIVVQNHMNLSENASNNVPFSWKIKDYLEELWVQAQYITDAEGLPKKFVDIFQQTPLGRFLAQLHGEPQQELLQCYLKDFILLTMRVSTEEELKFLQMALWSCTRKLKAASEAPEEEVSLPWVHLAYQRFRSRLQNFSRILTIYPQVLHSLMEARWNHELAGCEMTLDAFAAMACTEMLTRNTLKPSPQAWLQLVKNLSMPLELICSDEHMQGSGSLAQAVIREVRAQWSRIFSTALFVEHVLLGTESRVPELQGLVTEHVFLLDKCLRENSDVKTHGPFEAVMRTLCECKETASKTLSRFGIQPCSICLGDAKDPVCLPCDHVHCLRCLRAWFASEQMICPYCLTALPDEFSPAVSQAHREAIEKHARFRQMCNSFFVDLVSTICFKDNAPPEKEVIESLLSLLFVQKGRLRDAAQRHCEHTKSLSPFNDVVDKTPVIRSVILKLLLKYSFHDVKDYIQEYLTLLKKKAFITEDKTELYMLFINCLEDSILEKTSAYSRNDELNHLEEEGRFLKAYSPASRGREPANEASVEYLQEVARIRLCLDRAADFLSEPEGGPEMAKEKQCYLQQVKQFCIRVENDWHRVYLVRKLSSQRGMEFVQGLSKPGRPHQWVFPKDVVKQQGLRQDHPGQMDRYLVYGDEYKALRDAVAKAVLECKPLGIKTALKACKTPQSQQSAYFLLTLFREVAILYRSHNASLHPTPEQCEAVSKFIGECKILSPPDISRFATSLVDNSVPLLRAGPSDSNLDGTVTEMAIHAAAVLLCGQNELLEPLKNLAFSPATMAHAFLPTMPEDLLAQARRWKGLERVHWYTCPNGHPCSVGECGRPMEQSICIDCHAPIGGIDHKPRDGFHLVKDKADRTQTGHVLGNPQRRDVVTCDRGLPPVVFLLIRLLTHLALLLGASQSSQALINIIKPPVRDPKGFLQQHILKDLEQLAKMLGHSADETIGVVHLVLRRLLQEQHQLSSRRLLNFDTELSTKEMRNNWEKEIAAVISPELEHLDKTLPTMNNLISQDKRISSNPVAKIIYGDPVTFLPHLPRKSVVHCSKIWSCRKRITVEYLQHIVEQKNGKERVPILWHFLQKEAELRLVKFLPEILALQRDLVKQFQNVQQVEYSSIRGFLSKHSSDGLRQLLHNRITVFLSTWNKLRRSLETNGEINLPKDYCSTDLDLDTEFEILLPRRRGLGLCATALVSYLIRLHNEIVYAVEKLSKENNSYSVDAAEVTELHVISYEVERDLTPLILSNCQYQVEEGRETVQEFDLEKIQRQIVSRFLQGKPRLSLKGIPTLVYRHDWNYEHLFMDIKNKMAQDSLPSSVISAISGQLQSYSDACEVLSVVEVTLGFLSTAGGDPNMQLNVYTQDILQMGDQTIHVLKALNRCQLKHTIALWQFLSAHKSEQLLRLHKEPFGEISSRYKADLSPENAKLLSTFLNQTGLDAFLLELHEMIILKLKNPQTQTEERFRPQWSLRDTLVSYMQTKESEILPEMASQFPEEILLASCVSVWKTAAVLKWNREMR

Binder | binding result
B1 | binds
B2 | binds
